Here are results for one substance from patent publication US20110088129A1.

In assay [1] the target is binding sites in brush border membrane vesicles (BBMV) from midguts of last instar Helicoverpa zea larvae (Helicoverpa zea). The assay is described as follows: homologous competition, 125I-Cry1Ac on H. zea BBMV, LIGAND program.
The target of assay [2] is binding sites in brush border membrane vesicles (BBMV) from midguts of last instar Helicoverpa armigera larvae (Helicoverpa armigera). The assay is described as follows: homologous competition, 125I-Cry1Ac on H. armigera BBMV, LIGAND program.
Assay [3] has the same target. The experiment in a line: direct saturation assay, labeled Cry1Ac on BBMV at the same concentration as for Cry2Ab.

On to “Cry1Ac activated toxin (trypsin-activated Cry1Ac protoxin from B. thuringiensis strain HD73) (from UniProt P05068 29-623) (ligand)”, for which, in assay [1], the Kd is 0.17 nM and the Rt (binding site concentration) (pmol/mg BBMV protein) is 10. In assay [2], the Kd amounted to 0.08 nM and the Rt (binding site concentration) (pmol/mg BBMV protein) stood at 0.96. The same substance registered a fold less toxin needed for saturation than in the Cry2Ab assay in assay [3] of 4 fold.

What is called Kd is a measure of binding affinity in units of concentration.
